# Assay results taken from the nanobody polyreactivity screen of Harvey et al. (2022).
# Assay: yeast display, Sf9 membrane polyspecificity reagent, FACS + sequencing; frameworks hold sequencing errors
# Procedure, shortened: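 After 36–48 hours of galactose induction, yeast (Saccharomyces cerevisiae BJ5465) displaying a synthetic nanobody library were stained at 4 °C for 1 hour with 10% biotinylated, detergent-solubilized Sf9 membrane reagent. Streptavidin microbeads enriched the stained cells before FACS sorting into low and high (top ~1%) gates on anti-HA and streptavidin fluorescence. Each clone's polyreactivity label reflects its gate of origin.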
row,Sequence,polyreactivity (PSR sort gate)
1,QVQHVESGGGIVQAVGSLRLSCAASGSIFYYNAMGWYRQAPGKERELVAAISSGGSTYYADSVKGRFTISRDNAKNTVYLQMNSLKPEDTAVYYCAAKPAFRYLYSRYYPELGGYWGQGTQVTVSS,high polyreactivity
2,QVQLVESGGALVQAGGSLRLSCAASGFIFNHYAMGWYRQAPGKEREFVAAISWSGGSTYYADSVKGRFTISRDNAKNTVYLQMNSLKPEETAVYYCAASYNGLWHGDYDYWGQGTQVTVSS,low polyreactivity
3,QVHLVESGGGLVQAGGSLRLSCAASGFIFTYYTMGWYRQAPGKERELVAAISRSGARTYYADSVKGRFTISRDNAKNTVYLQMNSLKPEDTAVYYCNTDISYGYYPVGYDYWGQGTQVTVSS,high polyreactivity
4,QVQLVESGGGLVQAGGSLRLSCAASGSTFGYNARGWYRQAPGKEREFVARIRSSGSTTYADSVKGRFTISRDNAKNTVYLQMNSLKPEDTAVYYCAARRLYGYSPWVRFGSYDYWGQGTQVTVSS,high polyreactivity
5,QVQLVESGGGLVQAGGSLRLSCAASGRTIPAYTMGWYRQAPGKERELVAAINWSGGSTYYADSVKARFTISRDNAKNCVYLQMISLNPEDTAVYYCARTSRYYGFRSYGTLDYWGQGTQVTVSS,high polyreactivity
6,QVQLQESGGGLVQAGGSLLSCAASGTISYYREMGWYRPAPGKERELVAGIGVGTITYYADSVKGRFTISRDNAKNTVYLQMNSRKPEDTAVYYCAAHIDGNDSHAYWGQGTQVTVSS,low polyreactivity
7,QVQLVESGGGLVLAGGSLRLSCAASGYTFTIYAMGWYIQGPGKERELVSAITGRGGRTNYADSVKGRFTISRDNAKNTVYLQMNSLKPEDTAVYYCNAVTKVVYHGPYGYDYWGQGTQVTVSS,high polyreactivity
8,QVQLVESGGGLVQAGGSLRLSCAASGRIFDQYALGWYRQAPRKESELVAFINRGGSTNYADSVKGRFTISRDNAKNTVYLQMNSLKPEDTEVYYCAADGDYYVESQTGHTYYYWGQGTQVTVSS,low polyreactivity
9,QVQLVDSGGGLVQAGGSLRLSCAASGSIFGYYTMGWYRQAPGKERELVAAITSGGSTKYADSVKGRITISRDNAKNTVYLQMNCLKPEDTAVYYCAKVSYYPWRYDYWGPGTQVTVSS,low polyreactivity
10,QVQLVESGGGLVQAGGSLRLSCAASGRTFKNYAMGWYRQAPGKERELVAAISSGGGRTKYADSVKGRFTISRDNAKNSVYLQMNSLKPEDTAVYYCAAAYYYRDDYWGQGTQVTVSS,high polyreactivity
11,QVQLVESGGGLVQAGGSLRLSCAASGFIFGYYAMGWYRQAPGKERELVAVISRGGGSTHYADSVKGRFTISRDNAKNTVYLQMNSLKPEDTAVYYCAAQLGRRSATYYYWGQGTQVTVSS,high polyreactivity
12,QVQLVESGGGLVQAGGSLRLSCAASGFTFPVNAMGWYRQAPGKERELVATINSGGSTNYADSVKGRFTISRDNAKNTVYLQMNSLKPEDTAVYYCAAAKRTADYASYWYVENDYWGQGTQVTVSS,low polyreactivity
13,QVQLVESGGGLVQAGGSLRLSCAASGSIFGGYAMGWYRQAPGKERELVAAISVSDDITYYADSVKGRFTISRDNAKNTVYLQMNSLKPEDTAVYYCAAEPDTNYVVRYDYWGQGTQVTVSS,high polyreactivity
14,QVQLVESGGGLVQAGGSLRLSCAASGSTFRFYAMGWYRQAPGKERELVAGITGSGDSTYYADSVKGRFTISRDNAKNTVYLQMNSLKPEDTAVYYCNKRFLFAGFDYLGQGTQVTVSS,low polyreactivity
15,QVQLVESGGGLVQAGGSLRLSCAASGSTFRRNAMGWYRQAPGKERELVAAITWRGGSTSYADSVKGRFTISRDNAKNTVYLQMNSLKPEDTGVYYCAAVKGHSQVLSYGYWGQGTQVTVSS,low polyreactivity
16,QVQLVESGGGLVQAGGILRLSCAASGSTFGFNAMGWYRQAPGKERELVASITSGDSTYYADSVKGRFTISRDNAKNTVYLQMNSLKPEDTAVYYCAKVGGGGQAGDNPILSDYWGQGTQVTVSS,low polyreactivity
17,HVQLVESGGGLVQAGGSLRLSCAASGRIFYIYAMGWYRQAPGKERELVAGIRSRGGSTYYADSVKGRFTISRDNAKNTVYLQMNSLKPEDTAVYYCTTEIWGVNSSGYDYWGQGTQVTVSS,low polyreactivity
18,QVQLVDSGGGLVQAGGSLRLSCSASGITNGRNTMGLYRQAPGKERELVAAIDSGGNTYADSVKGRFTISRDNAKNTVYLQMNSLKPEDTAVYYCAVDGGEFSSYGYWGQGTQVTVSS,low polyreactivity
19,QVQLVESGGGLVQAGGSLRLSCAASGSTFTQNAMGWYRQAPGKERELVAAIDRRGGSTYYADSVKGRFTISRDNAKNTVYLQMNSLKPEDTAVYYCAASFSYNRPKRFTHNYEYWGQGTQVTVSS,low polyreactivity
20,QVQLVESGGGLVQAGGSLRLSCAASGGTFARNALGWYRQAPGKERELVAAIRGGVSTNYADSVKGRFTISRDNAKNTVYLQMNSLKPEDTAVYYCNASPPTLEGYWGQGTQVTVSS,low polyreactivity
21,QVQLVESGGGLVQAGGSLRLSCAASGSIFYYAMGWYRQAPGKERELVATISASGGSTYYADSVKGRFTISRDNEKNTVYLQMNSLKAEDTAVYYCAVRYKSWYGFNYWGQGTQVTVSS,high polyreactivity

row,Sequence,polyreactivity (PSR sort gate)
1,QVQLVESGGGLVQAGGSLRLSCAASGIIFARNTMGWYRQAPGKERELVAAITSSGGNTYYADSVKGRFTISRDNAKNTVYLQKNSLKPEDTAVYYCAAYSRTLYPDRYYWGQGTQVTVSS,high polyreactivity
2,QVQLVESGGGLVQAGGSLRLSCAASGSIFESNAMGWYRQAPGKEREFVAAIDWGDGSTSYADSVKGRFTISRDNAKNTVYLQMNSLKPEDTAVYYCAARSVFDLVYYNLIFDYWGQGTQVTVSS,high polyreactivity
3,QVQLVESGGGLVQAGGSLRLSCAASGGTFTSNAMGWYRQAPGKERELVAAISSRGGTYYADSVKGRFTISRDNAKNTVYVQMNSLKPEDTAVYYCAARGYLYSWNVSHTYDYWGQGTQVTVSS,high polyreactivity
4,QVQLVESGGGLVQAGGSLRLSCAASGSNIKYYAMGWYRQAPGKERELVAAISWRGGRTYADSVKGRFTISRDNAKNTVYLQMNSLKPEDTAVYYCATAQTSITGRVYYWGQGTQVTVSS,high polyreactivity
5,QVQLVESGGGLVQAGGSLRLSCAASGSIFLYYAMGWYRQAPGKERELVAAISYSGASTYYADSVKGRFTISRDNAKNTVYLQMNSLKPEDTAVYYCARDYGQYVGEGCYWGQGTQVTVSS,low polyreactivity
6,QVQLVESGGGLVQAGGSLRLSCAASVSLSGYYAMGWYRTGPGKERELVASIRYTGALTYYADTVKGRFTISRDNAKNTVYLQMNSLKPEDTAGYYCAADVKRDRVWGGDYWGQGTQVTVSS,low polyreactivity
7,QVQLVESGGGLVQAGGSLRLSCAASGSIFQYNAMGWYREAPGHEWELVAVISRSGSRTYYADSVKGRFTISRDNAKNTVYLQMNSLKPEDTAVYYCAADIWFYTYYGYDYWGQGTQVTVSS,high polyreactivity
8,QVQLVDSGGGLVQAGGILRLSCAASGNIIYQNALVWSRHAPGKERELVAAITGRGSSTYYADSVKGRFTSSRDNAKNTVYLQMNSLKPEDTAVYYCAADTTPYDGYYGHGYWGQGTQVTVSS,low polyreactivity
9,QVQLVESGGGLVQAGGSLRLSCAASGSTFFYNAMGWYRQAPGKERELVAGITSGGSTYYADSVKGRFTISRDNAKNTVYLQMNSLKPEDTAVYYCAVDVPPWDYDYWGQGTQVTVSS,low polyreactivity
10,QVQLVESGGGLVQAGGSLRVSCAASGINFDYYVMGWYRQAPGKERELVAAISRSGDRTNYADSVKGRFTSSRDHEKYTVFLLMNSLKPEDTAVYYCAARVRIRGGGYDYWGQGTQVTVSS,high polyreactivity
11,QVQLVESGGGLVQAGGSLRLSCAASGSTFYVNAMGCYKQAPGKEWELVAAIDGCDTYYADSVKGRFTISRDNAKKTVNLQMNSLKPDDTEVYYCAAESLPEISVGLGYWGQGTQVTVSS,low polyreactivity
12,QVQLVESGGGLVQAGGSLRLSCADSGSIFQRYAVGWYRQAPGKEREVVAAFTASGGSTYYADSVKGRFTISRDNAKNTVYLQMNILKPEDTAVYYCATDSYWRQDLYRYEYWGQGTQVTVSS,high polyreactivity
13,QDQLVESGGGLVQAGGSLSLSCAASGRIFYWYVIGWYRQAPGKEREYVASISWSGGSTYYADSVKGRFTISRDNAKNTVYLQMNSLKPEDTAVYYCNAGSVYTVSLTGHPYDYWGQGTQVTVSS,low polyreactivity
14,QVQLVESGGGLVQAGGSLRLSCAASGNTFIGNAMGWYRQAPGKERELVAAISWSTDSTYYADSVKGRFTISRDNAKNSVYLQMNSLKPEDTAINYCAADYSHLPIAWYYYWGQGTQVTVSS,low polyreactivity
15,QVQLVESGGGLVQAGGSLRLSCAASGNIFAFYAMGWYRQAPGKERELVADISWSGASTYYADSVKGRFTISRDNAKNTVYLQMNSLKPEDTAVYYCAAYATYYVIFYGDEYWGQGTQVTVSS,high polyreactivity
16,QVQLVESGGGLVQAGGSLRLSCAASGSTFFRYAMGLYRQAPGKEREFVAAITWSGTGTYYADSVKGRFTISRDNAKNTVYLQMNSLKPEDTAVYYCAARRSSNVRRDYWGQGTQVTVSS,high polyreactivity
17,QVELVESGGGLVQAGRSLRLSCAASGRILVSYAMGWYRQAPGKERELVAGITSGGDSTYYADSVKGRFTISRDNAKNTVYLQMNSLKPEDTAVYYCDADRDSYRGRKNVRERYTYWGQGTQVTVSS,high polyreactivity
18,QVQLVESGGGLVQAGGSLRLSCAASGFIFRFYAMGWYRQAPGKERELVATISKRGGTTYYADSVKGRFTISRDNAKNTVYLQMNSLKPEDTAVYYCAVRLYLEMDYWGQGTQVTVSS,high polyreactivity
19,QVQLVESGGGLVQAGGSLRLSCAASGRIFSYNAMGWYRQAPGKERELVAAITSSGSTYADSVKVRFTISRDNAKNTVYLQMNSLKPEDTAVYYCASYYNWSGHYYWGQGTQVTVSS,low polyreactivity
20,QVQLVESGGGLVQAGGSLRLSCAASGRIFYANAMGWYRQAPGKERELVAAISQSGGSTFYADSVKGRFTISRDNAKNTVYLQMNSLKPEDTAVYYCATEYYGPVYDLDYDYWGQGTQVTVSS,low polyreactivity
